Source: patent US20170029907, “GENERALIZABLE ASSAY FOR VIRUS CAPSID ASSEMBLY” (Indiana University Research and Technology Corporation, published 2017)

Key:
HBV capsid protein Cp183 [1] = target: T1, HBV capsid protein Cp183 (Hepatitis B virus, UniProt P03146 P03146:1-183); assay: FRET increase; 0.1 uM DNA; conditions: chain copies: dimer (stated); assembles into capsids; label: Cy3 and Cy5 at the two ends
Description: (§1) Assembly was monitored by fluorescence. All reactions were carried out at 21° C. For the Cy3 donor and Cy5 acceptor fluorophores, fluorescence emission spectra for FRET experiments was measured from 555-710 nm. For measuring FRET in titrations, donor and acceptor excitation wavelengths were 545 and 645 nm respectively. Acceptor emission was measured at 670 nm.
For comparison, DA was titrated with Cp183 and the results were compared to those obtained with GagΔ. FIGS. 4A and 4B show the spectra for HIV-1 GagΔ and HBV Cp183 respectively. Spectra obtained by titrating DA with GagΔ and Cp183 both show increases in FRET signal.

RRV capsid protein [2] = target: T2, RRV capsid protein (Ross River virus, UniProt P08491 P08491:1-270); assay: light scattering, DLS and EM; 50-170 mM NaCl; ionic strength dependent pseudo-critical concentration; conditions: chain copies: assembles into core-like particles; about 4 per oligonucleotide
RRV capsid protein [3] = target: T2, RRV capsid protein; assay: intermolecular FRET; 1 uM DNA; saturates at 4 proteins per oligo; conditions: chain copies: assembles into core-like particles; about 4 per oligonucleotide; label: Cy3 (D27) or Cy5 (A27)
HBV capsid protein Cp183 [4] = target: T1, HBV capsid protein Cp183; assay: intermolecular FRET and light scattering; 1 uM DNA; maximum near 3:1 then signal falls by dilution; conditions: chain copies: dimer (stated); assembles into capsids; label: Cy3 (D27) or Cy5 (A27)
Description: as §1
Using the optimized A:D ratio, we evaluated the sensitivity of this FRET assay for assembly. This was necessary to determine if reaction volumes and concentrations could be lowered to physiologically relevant levels. […] The minimum detectable concentration of DNA in these assays is 50 nM. Initial results shown in FIG. 1 are protein titrations of 1 μM DNA showing the assay works under more aggressive conditions. Assembly led to an increase in FRET, that was maximal at a specific protein concentration and then fell as more protein was added.

BMV capsid protein = target: T3, BMV capsid protein (Brome mosaic virus, UniProt P03602 P03602:1-189); assay: intermolecular FRET; 1 uM DNA; saturates at about 10 proteins per oligo; conditions: chain copies: assembles into capsids; label: Cy3 (D27) or Cy5 (A27)
T3 sequence: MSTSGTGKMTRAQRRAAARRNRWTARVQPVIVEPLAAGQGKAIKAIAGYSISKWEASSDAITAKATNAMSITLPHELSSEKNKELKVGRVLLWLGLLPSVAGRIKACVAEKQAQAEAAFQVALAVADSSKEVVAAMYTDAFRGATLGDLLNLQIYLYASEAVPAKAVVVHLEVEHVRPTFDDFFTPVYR

T1 sequence (P03146 whole entry, one chain of several): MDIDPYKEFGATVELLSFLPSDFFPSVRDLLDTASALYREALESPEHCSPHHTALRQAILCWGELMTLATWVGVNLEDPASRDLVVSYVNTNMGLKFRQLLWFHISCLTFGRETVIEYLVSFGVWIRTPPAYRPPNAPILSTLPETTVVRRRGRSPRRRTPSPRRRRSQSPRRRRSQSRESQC
T2 sequence (P08491 1-270, one chain of several): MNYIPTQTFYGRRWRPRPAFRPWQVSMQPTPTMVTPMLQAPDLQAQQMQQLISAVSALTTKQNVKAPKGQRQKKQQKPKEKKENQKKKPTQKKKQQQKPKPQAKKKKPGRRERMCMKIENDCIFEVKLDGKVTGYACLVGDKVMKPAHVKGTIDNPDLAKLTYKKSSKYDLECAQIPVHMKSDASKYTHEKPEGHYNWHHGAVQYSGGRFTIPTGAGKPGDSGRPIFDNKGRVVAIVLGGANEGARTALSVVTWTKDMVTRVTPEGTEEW

TGTGTGTGTGAAAAAAAAAAAAAAAAAAAATGTGTGTGTG (ssDNA) [DA 40-mer]: binds (HBV capsid protein Cp183 [1]).

TACCCACGCTCTCGCAGTCATAATTCG (ssDNA) [unlabeled 27-mer]: binds (RRV capsid protein [2]).

TACCCACGCTCTCGCAGTCATAATTCG (ssDNA) [27-mer D27/A27 1:1 mix]: binds (RRV capsid protein [3]); binds (HBV capsid protein Cp183 [4]); binds (BMV capsid protein).
